Assay results published in patent US20130058937A1 (Hoffmann-La Roche, published 2013).

Experiments:
[1] = molecular target: T1, human MCSP (Melanoma-associated Chondroitin Sulfate Proteoglycan), expressed on tumor cells (human, UniProt Q6UVK1 30-2322); assay: cell-based or functional assay
[2] = molecular target: T2, human CD3, expressed by Jurkat cells (human, UniProt P07766 23-207); assay: FACS on Jurkat cells, FITC/PE anti-human Fc secondary
T2 construct: whole, on cells; The assay presents the whole CD3 complex on Jurkat T cells; also called human CD3 on cells; huCD3
T2 sequence (P07766 23-207): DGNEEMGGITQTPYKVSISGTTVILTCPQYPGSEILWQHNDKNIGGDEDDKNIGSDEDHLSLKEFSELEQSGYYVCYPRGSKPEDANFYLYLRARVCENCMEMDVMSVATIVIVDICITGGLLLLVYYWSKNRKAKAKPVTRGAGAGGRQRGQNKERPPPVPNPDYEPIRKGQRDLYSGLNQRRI
Experimental: Binding of the different bispecific constructs to CD3 on Jurkat (ATCC #TIB-152) cells, and the respective tumor antigen MCSP on WM266-4 cells or CEA on LS174-T cells, was determined by FACS. Briefly, cells were harvested, counted and checked for viability. 0.15-0.2 million cells per well were plated in a round-bottom 96-well plate and incubated with the indicated concentration of the bispecific constructs and controls for 30 min at 4° C. For a better comparison, the constructs were normalized to same molarity. Cells were washed with PBS containing 0.1% BSA once. After incubation with a FITC- or PE-conjugated secondary antibody for 30 min at 4° C., bound constructs were detected using a FACSCantoII (Software FACS Diva). A FITC- or PE-conjugated AffiniPure F(ab′)2 Fragment goat anti-human IgG Fcγ Fragment Specific (Jackson Immuno Research Lab #109-096-098/working solution 1:20, or #109-116-170/working solution 1:80, respectively) was used. […] EC50 values were calculated using the GraphPad Prism 5 software.
As a control, the equivalent maximum concentration of the corresponding IgGs and the background staining due to the labeled 2ndary antibody (goat anti-human FITC-conjugated AffiniPure F(ab′)2 Fragment, Fcγ Fragment-specific, Jackson Immuno Research Lab #109-096-098) were assessed as well. […]

[3] = molecular target: T1, human MCSP (Melanoma-associated …); assay: FACS on WM266-4 cells, FITC/PE anti-human Fc secondary
Experimental: Binding of the different bispecific constructs to CD3 on Jurkat (ATCC #TIB-152) cells, and the respective tumor antigen MCSP on WM266-4 cells or CEA on LS174-T cells, was determined by FACS. Briefly, cells were harvested, counted and checked for viability. 0.15-0.2 million cells per well were plated in a round-bottom 96-well plate and incubated with the indicated concentration of the bispecific constructs and controls for 30 min at 4° C. For a better comparison, the constructs were normalized to same molarity. Cells were washed with PBS containing 0.1% BSA once. After incubation with a FITC- or PE-conjugated secondary antibody for 30 min at 4° C., bound constructs were detected using a FACSCantoII (Software FACS Diva). A FITC- or PE-conjugated AffiniPure F(ab′)2 Fragment goat anti-human IgG Fcγ Fragment Specific (Jackson Immuno Research Lab #109-096-098/working solution 1:20, or #109-116-170/working solution 1:80, respectively) was used. Unless otherwise indicated, cells were fixed with 100 μl/well fixation buffer (BD #554655) for 15 min at 4° C. in the dark, centrifuged for 6 min at 400×g and kept in 200 μl/well PBS containing 0.1% BSA until analysis. EC50 values were calculated using the GraphPad Prism 5 software.
While binding of both construct to MCSP on cells was comparably good, the binding of the “inverted” construct to CD3 was reduced compared to the other construct.

T1 sequence (Q6UVK1 30-2322): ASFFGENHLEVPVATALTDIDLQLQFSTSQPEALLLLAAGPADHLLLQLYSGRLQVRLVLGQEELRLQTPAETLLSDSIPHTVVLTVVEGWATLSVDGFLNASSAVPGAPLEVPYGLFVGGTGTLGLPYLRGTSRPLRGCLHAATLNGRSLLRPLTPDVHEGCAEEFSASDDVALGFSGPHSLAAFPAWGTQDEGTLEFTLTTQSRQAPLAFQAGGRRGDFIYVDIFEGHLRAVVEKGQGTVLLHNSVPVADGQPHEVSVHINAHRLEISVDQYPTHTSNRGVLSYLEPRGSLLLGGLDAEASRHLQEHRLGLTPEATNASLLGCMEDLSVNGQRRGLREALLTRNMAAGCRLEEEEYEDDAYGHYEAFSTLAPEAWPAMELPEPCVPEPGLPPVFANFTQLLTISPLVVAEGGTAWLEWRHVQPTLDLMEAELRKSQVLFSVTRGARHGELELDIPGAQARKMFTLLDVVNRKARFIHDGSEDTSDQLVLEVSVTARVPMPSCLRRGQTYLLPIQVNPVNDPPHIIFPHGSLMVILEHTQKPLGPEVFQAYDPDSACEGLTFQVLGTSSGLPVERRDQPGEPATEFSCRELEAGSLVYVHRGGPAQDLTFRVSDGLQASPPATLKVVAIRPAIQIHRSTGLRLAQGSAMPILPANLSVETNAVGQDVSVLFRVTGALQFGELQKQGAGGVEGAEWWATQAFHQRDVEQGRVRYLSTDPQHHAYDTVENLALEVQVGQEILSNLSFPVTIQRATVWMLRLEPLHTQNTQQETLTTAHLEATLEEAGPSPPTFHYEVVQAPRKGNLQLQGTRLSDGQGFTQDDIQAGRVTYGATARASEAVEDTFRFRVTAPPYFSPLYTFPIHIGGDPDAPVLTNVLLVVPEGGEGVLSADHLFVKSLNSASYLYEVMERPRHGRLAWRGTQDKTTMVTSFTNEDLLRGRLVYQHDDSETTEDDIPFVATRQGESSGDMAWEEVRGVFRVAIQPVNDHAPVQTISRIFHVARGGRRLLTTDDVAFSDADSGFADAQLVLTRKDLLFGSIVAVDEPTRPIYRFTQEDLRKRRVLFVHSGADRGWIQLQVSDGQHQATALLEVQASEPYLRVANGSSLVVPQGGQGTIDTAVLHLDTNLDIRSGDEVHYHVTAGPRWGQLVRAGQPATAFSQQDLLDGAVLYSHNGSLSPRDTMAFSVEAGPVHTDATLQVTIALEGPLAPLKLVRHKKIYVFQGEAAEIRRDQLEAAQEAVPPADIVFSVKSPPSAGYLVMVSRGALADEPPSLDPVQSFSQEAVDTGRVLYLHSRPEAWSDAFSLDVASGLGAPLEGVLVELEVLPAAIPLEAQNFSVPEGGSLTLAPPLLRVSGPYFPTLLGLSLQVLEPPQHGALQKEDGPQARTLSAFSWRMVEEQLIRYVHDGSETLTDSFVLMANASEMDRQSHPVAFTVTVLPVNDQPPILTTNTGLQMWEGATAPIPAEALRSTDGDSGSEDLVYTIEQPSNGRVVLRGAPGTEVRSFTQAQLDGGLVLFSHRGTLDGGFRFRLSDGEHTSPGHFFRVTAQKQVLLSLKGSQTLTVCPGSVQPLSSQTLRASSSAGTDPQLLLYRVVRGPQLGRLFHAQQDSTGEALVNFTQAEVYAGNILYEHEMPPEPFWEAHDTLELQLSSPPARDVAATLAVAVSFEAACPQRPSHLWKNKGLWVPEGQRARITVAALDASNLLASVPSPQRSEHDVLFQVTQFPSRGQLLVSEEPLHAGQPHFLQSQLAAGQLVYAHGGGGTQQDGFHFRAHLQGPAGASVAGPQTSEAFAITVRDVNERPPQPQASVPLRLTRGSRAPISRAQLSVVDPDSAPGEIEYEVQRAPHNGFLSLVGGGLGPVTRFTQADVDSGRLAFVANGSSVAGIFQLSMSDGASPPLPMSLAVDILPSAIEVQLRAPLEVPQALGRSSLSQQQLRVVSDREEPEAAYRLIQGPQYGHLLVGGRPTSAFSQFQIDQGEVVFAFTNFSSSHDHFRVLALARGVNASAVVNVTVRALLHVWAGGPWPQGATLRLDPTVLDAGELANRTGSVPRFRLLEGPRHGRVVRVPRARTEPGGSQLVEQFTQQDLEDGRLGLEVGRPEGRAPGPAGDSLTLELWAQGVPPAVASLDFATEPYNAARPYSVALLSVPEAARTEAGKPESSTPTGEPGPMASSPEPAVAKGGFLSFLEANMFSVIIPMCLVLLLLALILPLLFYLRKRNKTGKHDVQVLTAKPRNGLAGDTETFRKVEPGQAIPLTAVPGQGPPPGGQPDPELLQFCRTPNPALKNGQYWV

Row | Binder | EC50 of killing (LDH release) of MV-3 cells, human PBMCs, E:T 10:1, 21 h [1] [nM] | EC50 of killing (LDH release) of WM266-4 cells, human PBMCs, E:T 10:1, 21 h [1] [nM] | EC50 [2] [nM] | EC50 [3] [nM]
1 | 2+1 IgG Crossfab (N-terminal); VL/VH exchange (MCSP (LC007)/huCD3) (bispecific antibody, Two MCSP Fabs, one CD3 Crossfab fused to the N-terminus of one Fab; also called anti-MCSP/anti-huCD3; CD3-MCSP 2+1 IgG Crossfab (N-terminal)) chain 1: DIQMTQSPSSLSASVGDRVTITCRASQDIRNYLNWYQQKPGKAPKLLIYYTSRLESGVPSRFSGSGSGTDYTLTISSLQPEDFATYYCQQGNTLPWTFGQGTKVEIKSSASTKGPSVFPLAPSSKSTSGGTAALGCLVKDYFPEPVTVSWNSGALTSGVHTFPAVLQSSGLYSLSSVVTVPSSSLGTQTYICNVNHKPSNTKVDKKVEPKSCGGGGSGGGGSEVQLQESGPGLVKPSQSLSLTCSVTGYSITSGYYWNWIRQFPGNKLEWMGYITYDGSNNYNPSLKNRISITRDTSKNQFFLKLNSVTTEDTATYYCADFDYWGQGTTLTVSSASTKGPSVFPLAPSSKSTSGGTAALGCLVKDYFPEPVTVSWNSGALTSGVHTFPAVLQSSGLYSLSSVVTVPSSSLGTQTYICNVNHKPSNTKVDKKVEPKSCDKTHTCPPCPAPEAAGGPSVFLFPPKPKDTLMISRTPEVTCVVVDVSHEDPEVKFNWYVDGVEVHNAKTKPREEQYNSTYRVVSVLTVLHQDWLNGKEYKCKVSNKALGAPIEKTISKAKGQPREPQVCTLPPSRDELTKNQVSLSCAVKGFYPSDIAVEWESNGQPENNYKTTPPVLDSDGSFFLVSKLTVDKSRWQQGNVFSCSVMHEALHNHYTQKSLSLSPGK chain 2: EVQLVESGGGLVQPGGSLRLSCAASGYSFTGYTMNWVRQAPGKGLEWVALINPYKGVSTYNQKFKDRFTISVDKSKNTAYLQMNSLRAEDTAVYYCARSGYYGDSDWYFDVWGQGTLVTVSSASVAAPSVFIFPPSDEQLKSGTASVVCLLNNFYPREAKVQWKVDNALQSGNSQESVTEQDSKDSTYSLSSTLTLSKADYEKHKVYACEVTHQGLSSPVTKSFNRGEC chain 3: DIVLTQSPSSLSASLGDRVTISCSASQGIRNYLNWYQQRPDGTVKLLIYYTSSLHSGVPSRFSGSGSGTDYSLTISNLEPEDIATYYCQQYSKLPWTFGGGTKLEIKRTVAAPSVFIFPPSDEQLKSGTASVVCLLNNFYPREAKVQWKVDNALQSGNSQESVTEQDSKDSTYSLSSTLTLSKADYEKHKVYACEVTHQGLSSPVTKSFNRGEC chain 4: not shown | 0.0092 | 0.0331 | 1.66 | 0.95
2 | CD3-MCSP 1+1 CrossMab; CL/CH1 exchange (MCSP (LC007)/huCD3) (bispecific antibody) chain 1: DIVLTQSPSSLSASLGDRVTISCSASQGIRNYLNWYQQRPDGTVKLLIYYTSSLHSGVPSRFSGSGSGTDYSLTISNLEPEDIATYYCQQYSKLPWTFGGGTKLEIKRTVAAPSVFIFPPSDEQLKSGTASVVCLLNNFYPREAKVQWKVDNALQSGNSQESVTEQDSKDSTYSLSSTLTLSKADYEKHKVYACEVTHQGLSSPVTKSFNRGEC chain 2: DIQMTQSPSSLSASVGDRVTITCRASQDIRNYLNWYQQKPGKAPKLLIYYTSRLESGVPSRFSGSGSGTDYTLTISSLQPEDFATYYCQQGNTLPWTFGQGTKVEIKSSASTKGPSVFPLAPSSKSTSGGTAALGCLVKDYFPEPVTVSWNSGALTSGVHTFPAVLQSSGLYSLSSVVTVPSSSLGTQTYICNVNHKPSNTKVDKKVEPKSC chain 3: not shown chain 4: EVQLQESGPGLVKPSQSLSLTCSVTGYSITSGYYWNWIRQFPGNKLEWMGYITYDGSNNYNPSLKNRISITRDTSKNQFFLKLNSVTTEDTATYYCADFDYWGQGTTLTVSSASTKGPSVFPLAPSSKSTSGGTAALGCLVKDYFPEPVTVSWNSGALTSGVHTFPAVLQSSGLYSLSSVVTVPSSSLGTQTYICNVNHKPSNTKVDKKVEPKSCDKTHTCPPCPAPEAAGGPSVFLFPPKPKDTLMISRTPEVTCVVVDVSHEDPEVKFNWYVDGVEVHNAKTKPREEQYNSTYRVVSVLTVLHQDWLNGKEYKCKVSNKALGAPIEKTISKAKGQPREPQVCTLPPSRDELTKNQVSLSCAVKGFYPSDIAVEWESNGQPENNYKTTPPVLDSDGSFFLVSKLTVDKSRWQQGNVFSCSVMHEALHNHYTQKSLSLSPGK | 0.0884 | 0.0539 | – | –
3 | CD3-MCSP 1+1 IgG Crossfab (N-terminal) (SEQ ID NOs 1, 3, 4, 86) (bispecific antibody) chain 1: DIQMTQSPSSLSASVGDRVTITCRASQDIRNYLNWYQQKPGKAPKLLIYYTSRLESGVPSRFSGSGSGTDYTLTISSLQPEDFATYYCQQGNTLPWTFGQGTKVEIKSSASTKGPSVFPLAPSSKSTSGGTAALGCLVKDYFPEPVTVSWNSGALTSGVHTFPAVLQSSGLYSLSSVVTVPSSSLGTQTYICNVNHKPSNTKVDKKVEPKSCGGGGSGGGGSEVQLQESGPGLVKPSQSLSLTCSVTGYSITSGYYWNWIRQFPGNKLEWMGYITYDGSNNYNPSLKNRISITRDTSKNQFFLKLNSVTTEDTATYYCADFDYWGQGTTLTVSSASTKGPSVFPLAPSSKSTSGGTAALGCLVKDYFPEPVTVSWNSGALTSGVHTFPAVLQSSGLYSLSSVVTVPSSSLGTQTYICNVNHKPSNTKVDKKVEPKSCDKTHTCPPCPAPEAAGGPSVFLFPPKPKDTLMISRTPEVTCVVVDVSHEDPEVKFNWYVDGVEVHNAKTKPREEQYNSTYRVVSVLTVLHQDWLNGKEYKCKVSNKALGAPIEKTISKAKGQPREPQVCTLPPSRDELTKNQVSLSCAVKGFYPSDIAVEWESNGQPENNYKTTPPVLDSDGSFFLVSKLTVDKSRWQQGNVFSCSVMHEALHNHYTQKSLSLSPGK chain 2: EVQLVESGGGLVQPGGSLRLSCAASGYSFTGYTMNWVRQAPGKGLEWVALINPYKGVSTYNQKFKDRFTISVDKSKNTAYLQMNSLRAEDTAVYYCARSGYYGDSDWYFDVWGQGTLVTVSSASVAAPSVFIFPPSDEQLKSGTASVVCLLNNFYPREAKVQWKVDNALQSGNSQESVTEQDSKDSTYSLSSTLTLSKADYEKHKVYACEVTHQGLSSPVTKSFNRGEC chain 3: DIVLTQSPSSLSASLGDRVTISCSASQGIRNYLNWYQQRPDGTVKLLIYYTSSLHSGVPSRFSGSGSGTDYSLTISNLEPEDIATYYCQQYSKLPWTFGGGTKLEIKRTVAAPSVFIFPPSDEQLKSGTASVVCLLNNFYPREAKVQWKVDNALQSGNSQESVTEQDSKDSTYSLSSTLTLSKADYEKHKVYACEVTHQGLSSPVTKSFNRGEC chain 4: not shown | 0.0409 | 0.0284 | – | –
4 | 2+1 IgG Crossfab (N-terminal), inverted; CL/CH1 exchange (MCSP (LC007)/huCD3) (bispecific antibody, also called the inverted construct; CD3/MCSP 2+1 IgG Crossfab (N-terminal), inverted) chain 1: DIVLTQSPSSLSASLGDRVTISCSASQGIRNYLNWYQQRPDGTVKLLIYYTSSLHSGVPSRFSGSGSGTDYSLTISNLEPEDIATYYCQQYSKLPWTFGGGTKLEIKRTVAAPSVFIFPPSDEQLKSGTASVVCLLNNFYPREAKVQWKVDNALQSGNSQESVTEQDSKDSTYSLSSTLTLSKADYEKHKVYACEVTHQGLSSPVTKSFNRGEC chain 2: DIQMTQSPSSLSASVGDRVTITCRASQDIRNYLNWYQQKPGKAPKLLIYYTSRLESGVPSRFSGSGSGTDYTLTISSLQPEDFATYYCQQGNTLPWTFGQGTKVEIKSSASTKGPSVFPLAPSSKSTSGGTAALGCLVKDYFPEPVTVSWNSGALTSGVHTFPAVLQSSGLYSLSSVVTVPSSSLGTQTYICNVNHKPSNTKVDKKVEPKSC chain 3: EVQLQESGPGLVKPSQSLSLTCSVTGYSITSGYYWNWIRQFPGNKLEWMGYITYDGSNNYNPSLKNRISITRDTSKNQFFLKLNSVTTEDTATYYCADFDYWGQGTTLTVSSASTKGPSVFPLAPSSKSTSGGTAALGCLVKDYFPEPVTVSWNSGALTSGVHTFPAVLQSSGLYSLSSVVTVPSSSLGTQTYICNVNHKPSNTKVDKKVEPKSCDKTHTCPPCPAPEAAGGPSVFLFPPKPKDTLMISRTPEVTCVVVDVSHEDPEVKFNWYVDGVEVHNAKTKPREEQYNSTYRVVSVLTVLHQDWLNGKEYKCKVSNKALGAPIEKTISKAKGQPREPQVCTLPPSRDELTKNQVSLSCAVKGFYPSDIAVEWESNGQPENNYKTTPPVLDSDGSFFLVSKLTVDKSRWQQGNVFSCSVMHEALHNHYTQKSLSLSPGK chain 4: not shown | – | – | 6.1 | 0.57
